T1: recombinant human GPR1 receptor (human, UniProt P46091 1-355)
T1 sequence: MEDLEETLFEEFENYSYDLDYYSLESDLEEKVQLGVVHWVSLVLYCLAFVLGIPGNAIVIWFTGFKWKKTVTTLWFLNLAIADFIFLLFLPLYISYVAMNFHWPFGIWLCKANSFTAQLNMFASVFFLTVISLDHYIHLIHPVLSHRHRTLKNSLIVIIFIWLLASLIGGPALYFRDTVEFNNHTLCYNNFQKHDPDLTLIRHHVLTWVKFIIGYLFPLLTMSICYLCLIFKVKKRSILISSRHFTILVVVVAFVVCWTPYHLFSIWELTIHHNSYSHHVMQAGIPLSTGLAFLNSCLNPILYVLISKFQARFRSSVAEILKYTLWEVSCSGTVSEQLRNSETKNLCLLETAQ


Target: T1, recombinant human GPR1 receptor
Experiment: cell-based or functional assay

Row | EC50 of beta-arrestin2 recruitment (agonistic activity), CHO-K1-hGPR1-Beta-arrestin 2 PathHunter cells [nM] | Molecule
1 | 60.9 | MAPRGFSCLLLLTSEIDLPVKRRA [Humanin]
2 | 55.6 | MAPRGFSALLLLTSEIDLPVKRRA [Ala8-Humanin]

The next lines start with the molecule.

Row | Molecule | EC50 of beta-arrestin2 recruitment (agonistic activity), CHO-K1-hGPR1-Beta-arrestin 2 PathHunter cells [nM]
3 | d-Ser14-Humanin (peptide) | 92.8
4 | MAPRGFSCLLLLTGEIDLPVKRRA [Gly14-Humanin] | 46.1
